{"source": "the Human Domainome abundance scans (Beltran et al. 2025)", "parents": {"B1": {"name": "Receptor-interacting serine/threonine-protein kinase 2, residues 438 to 518; numbered along this chain, O43353 (parent)", "chain": "QWIQSKREDIVNQMTEACLNQSLDALLSRDLIMKEDYELVSTKPTRTSKVRQLLDTTDIQGEEFAKVIVQKLKDNKQMGLQ"}}, "note": "± gives the uncertainty stated by the source."}
{"variants_of": "B1", "experiment": "abundance fitness (aPCA) (normalised: wild type 0, dead -1); higher = more abundant; growth selection in yeast, the domain comes from the species named", "conditions": "Homo sapiens"}
{"variant": "QWIQSKREDWVNQMTEACLNQSLDALLSRDLIMKEDYELVSTKPTRTSKVRQLLDTTDIQGEEFAKVIVQKLKDNKQMGLQ", "abundance fitness": "-0.968 ± 0.29"}
{"variant": "QWIQSKREDPVNQMTEACLNQSLDALLSRDLIMKEDYELVSTKPTRTSKVRQLLDTTDIQGEEFAKVIVQKLKDNKQMGLQ", "abundance fitness": "-0.622 ± 0.14"}
{"variant": "QWIQSKREDIVNQMTEACLNQSLDALLSRDLIMKEDYELVSTKPTRTSKPRQLLDTTDIQGEEFAKVIVQKLKDNKQMGLQ", "abundance fitness": "-0.53 ± 0.066"}
{"variant": "QWIQSKREDIVNQMTEACLNQSLDALLSRDLIMKEDYELVSTKPTRQSKVRQLLDTTDIQGEEFAKVIVQKLKDNKQMGLQ", "abundance fitness": "-0.145 ± 0.15"}
{"variant": "QWIQSKREDIVNQMTEACLNQSQDALLSRDLIMKEDYELVSTKPTRTSKVRQLLDTTDIQGEEFAKVIVQKLKDNKQMGLQ", "abundance fitness": "-0.424 ± 0.14"}
{"variant": "QWIQSKREDIVNQMTEACLNQSADALLSRDLIMKEDYELVSTKPTRTSKVRQLLDTTDIQGEEFAKVIVQKLKDNKQMGLQ", "abundance fitness": "-0.397 ± 0.11"}
{"variant": "QWIQSKREDIHNQMTEACLNQSLDALLSRDLIMKEDYELVSTKPTRTSKVRQLLDTTDIQGEEFAKVIVQKLKDNKQMGLQ", "abundance fitness": "-0.656 ± 0.29"}
{"variant": "QWIQSKREDIVNQMTEACLNQSLDALLSRDLIMKEDYELVSTRPTRTSKVRQLLDTTDIQGEEFAKVIVQKLKDNKQMGLQ", "abundance fitness": "0.013 ± 0.061"}
{"variant": "QWIQSKREDIVNQMTEACLNQSLDALLSRDLIMKEDYELVSTWPTRTSKVRQLLDTTDIQGEEFAKVIVQKLKDNKQMGLQ", "abundance fitness": "-1.04 ± 0.34"}
{"variant": "QWIQSKREDIVNQMTEACLNQSLDALLSRDLIMKEDYEMVSTKPTRTSKVRQLLDTTDIQGEEFAKVIVQKLKDNKQMGLQ", "abundance fitness": "-0.218 ± 0.23"}
{"variant": "QWIQSKREDIVNQMTEACLNQSLDALLSRDLIMKEDYEDVSTKPTRTSKVRQLLDTTDIQGEEFAKVIVQKLKDNKQMGLQ", "abundance fitness": "-0.194 ± 0.11"}
{"variant": "QWIQSKREDIVNQMTEACLNQSLDALLSRDLIMKEDYESVSTKPTRTSKVRQLLDTTDIQGEEFAKVIVQKLKDNKQMGLQ", "abundance fitness": "-0.138 ± 0.071"}
{"variant": "QWIQSKREDIVNQMEEACLNQSLDALLSRDLIMKEDYELVSTKPTRTSKVRQLLDTTDIQGEEFAKVIVQKLKDNKQMGLQ", "abundance fitness": "-0.767 ± 0.27"}
{"variant": "QWIQSKREDIVNQMTEACLNQSLDALLSRDLIMKEDYELVSTKPTRTSKVRQLLDTTDIQGLEFAKVIVQKLKDNKQMGLQ", "abundance fitness": "-0.808 ± 0.094"}
{"variant": "QWIQSKREDIVNQMTEACLNQSLDALLSRDLIMKEDYELVSTKPTRTSKVRQLLDTTDIQGGEFAKVIVQKLKDNKQMGLQ", "abundance fitness": "-0.537 ± 0.069"}
{"variant": "QWIQSKREDIVNQMTEACLNQSLGALLSRDLIMKEDYELVSTKPTRTSKVRQLLDTTDIQGEEFAKVIVQKLKDNKQMGLQ", "abundance fitness": "-0.692 ± 0.1"}
{"variant": "QWIQSKREDIVNQMTEACLNQSLYALLSRDLIMKEDYELVSTKPTRTSKVRQLLDTTDIQGEEFAKVIVQKLKDNKQMGLQ", "abundance fitness": "-0.221 ± 0.22"}
{"variant": "QWIQSKREDIVNQMTEACLNQSLDALLSRDLIMKEDQELVSTKPTRTSKVRQLLDTTDIQGEEFAKVIVQKLKDNKQMGLQ", "abundance fitness": "-0.547 ± 0.11"}
{"variant": "QWIQSKREDIVNQMTEACLNQSLDALLSRDLIMKEDSELVSTKPTRTSKVRQLLDTTDIQGEEFAKVIVQKLKDNKQMGLQ", "abundance fitness": "-0.518 ± 0.045"}
{"variant": "QWIQSKREDIVNQMTEACLNQSLDALLSRDLIMKEDYELVSTKPTLTSKVRQLLDTTDIQGEEFAKVIVQKLKDNKQMGLQ", "abundance fitness": "0.143 ± 0.037"}
{"variant": "QWIQSKREDIVNQMTEACLNQSLDALLSRDLIMKEDYELVSTKPTRTSKVRQLLETTDIQGEEFAKVIVQKLKDNKQMGLQ", "abundance fitness": "-0.015 ± 0.09"}
{"variant": "QWIQSKREDIVNQMTEACLNKSLDALLSRDLIMKEDYELVSTKPTRTSKVRQLLDTTDIQGEEFAKVIVQKLKDNKQMGLQ", "abundance fitness": "-0.338 ± 0.18"}
{"variant": "QWIQSKREDIVNQMTEACLNQSLDALLSRDLIMKEDYELVSTKPTRTSKVRQGLDTTDIQGEEFAKVIVQKLKDNKQMGLQ", "abundance fitness": "-0.433 ± 0.057"}
{"variant": "QWIQSKREDIVNTMTEACLNQSLDALLSRDLIMKEDYELVSTKPTRTSKVRQLLDTTDIQGEEFAKVIVQKLKDNKQMGLQ", "abundance fitness": "-0.19 ± 0.28"}
{"variant": "QWTQSKREDIVNQMTEACLNQSLDALLSRDLIMKEDYELVSTKPTRTSKVRQLLDTTDIQGEEFAKVIVQKLKDNKQMGLQ", "abundance fitness": "-0.745 ± 0.42"}
{"variant": "QWIQSKREDIVNQMTEACLNQSLDALLSRDLIMKEDYELVSTKPTRTSKVRQLLDTTDIQGEEFAKVIGQKLKDNKQMGLQ", "abundance fitness": "-0.553 ± 0.086"}
{"variant": "QWIQSKREDIVNQMTEACLNQSLDALLSRDLIMKEDYELVSTKPTRTSKVRQLLDTTDIQGEEFAKVINQKLKDNKQMGLQ", "abundance fitness": "-0.94 ± 0.35"}
{"variant": "QWIQSKREDIVNQMTEACLNQSLDALLSRDLIMKEDYELVSTKPTRTSEVRQLLDTTDIQGEEFAKVIVQKLKDNKQMGLQ", "abundance fitness": "-0.576 ± 0.33"}
{"variant": "QWIQLKREDIVNQMTEACLNQSLDALLSRDLIMKEDYELVSTKPTRTSKVRQLLDTTDIQGEEFAKVIVQKLKDNKQMGLQ", "abundance fitness": "-0.216 ± 0.15"}
{"variant": "QWIQSKREDIVNQMTEACLNQSLDALLSRDLIMKEDYELVSTKPTRTSKVRQLLDTTDIQGEEFAKVIVQMLKDNKQMGLQ", "abundance fitness": "-0.113 ± 0.11"}
{"variant": "QWIQSKREDIVNQMTEACLNQSLDALLSRDLIMKEDYELVSTKPTRTSKVRQLLDTTDIQGEEFAKVIVQCLKDNKQMGLQ", "abundance fitness": "-0.02 ± 0.11"}
{"variant": "QWIQSKREDIVNQMTEACLNQSLDALLSRDLIMKEDYELVSTKPTRTSKVRQLLDTTDIQGEEFAKVNVQKLKDNKQMGLQ", "abundance fitness": "-0.459 ± 0.26"}
{"variant": "QWIQSKREDIVNQMTEACLNQSLDALLSRDLIMKEDYELVSTKPTRTSKVRQLLDTTDIQGEEFAKVSVQKLKDNKQMGLQ", "abundance fitness": "-0.491 ± 0.073"}
{"variant": "QWIQSKREDIVNQMTEACLNQSLDALLSRDLIMKEDYELVSTKPTRTSKVRQLLDTTDIQGEEFAKGIVQKLKDNKQMGLQ", "abundance fitness": "-0.639 ± 0.07"}
